Measurements taken from US20250262210A1 (TRUSTEES OF COLUMBIA UNIVERSITY IN THE CITY OF NEW YORK, published 2025).

Tests used:
Assay in all cases: IP/MS, LZTR1 R810W-FLAG, U87
[1] = target: MAP4K4 (human, UniProt O95819 2-1239, limits assumed)
In short: (§1)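 Gel slices were reduced with 5 mM DTT, alkylated with 11 mM IAA and digested overnight at 37° C. with trypsin. Peptides were analysed on an Orbitrap Fusion Tribrid by LC-MS/MS.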

[2] = target: T1, RANBP6 (human, UniProt O60518 2-1105)
T1 sequence (looked up): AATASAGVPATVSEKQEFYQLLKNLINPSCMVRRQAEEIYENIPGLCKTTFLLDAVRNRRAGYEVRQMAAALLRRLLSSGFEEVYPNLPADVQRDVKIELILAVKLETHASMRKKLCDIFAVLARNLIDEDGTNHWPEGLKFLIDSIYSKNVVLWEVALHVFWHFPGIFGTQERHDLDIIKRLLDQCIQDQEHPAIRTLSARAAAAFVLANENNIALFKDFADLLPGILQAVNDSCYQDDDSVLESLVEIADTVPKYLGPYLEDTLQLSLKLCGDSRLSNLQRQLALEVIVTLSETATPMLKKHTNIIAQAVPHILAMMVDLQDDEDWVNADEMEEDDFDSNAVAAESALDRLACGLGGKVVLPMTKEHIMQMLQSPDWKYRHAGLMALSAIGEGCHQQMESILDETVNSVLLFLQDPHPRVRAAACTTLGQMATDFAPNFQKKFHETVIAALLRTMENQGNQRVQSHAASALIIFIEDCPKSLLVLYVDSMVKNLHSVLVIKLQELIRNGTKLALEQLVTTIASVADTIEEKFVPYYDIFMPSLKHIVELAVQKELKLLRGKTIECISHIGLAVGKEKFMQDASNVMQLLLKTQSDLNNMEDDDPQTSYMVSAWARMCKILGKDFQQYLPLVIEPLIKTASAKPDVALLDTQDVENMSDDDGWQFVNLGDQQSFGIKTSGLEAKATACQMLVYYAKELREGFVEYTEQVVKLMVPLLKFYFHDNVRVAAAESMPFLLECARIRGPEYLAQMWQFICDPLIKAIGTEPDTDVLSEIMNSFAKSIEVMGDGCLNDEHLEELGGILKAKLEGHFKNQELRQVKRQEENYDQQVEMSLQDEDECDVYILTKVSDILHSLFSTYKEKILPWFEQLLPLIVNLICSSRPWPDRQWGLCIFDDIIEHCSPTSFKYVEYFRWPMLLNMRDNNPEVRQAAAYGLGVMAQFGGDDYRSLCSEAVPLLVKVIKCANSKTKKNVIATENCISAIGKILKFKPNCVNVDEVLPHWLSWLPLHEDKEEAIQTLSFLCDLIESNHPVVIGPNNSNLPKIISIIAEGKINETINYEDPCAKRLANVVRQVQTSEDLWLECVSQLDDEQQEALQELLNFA
In short: as §1

[3] = target: ARHGEF40 (human, UniProt Q8TER5 1-1519, limits assumed)
In short: as §1

[4] = target: HTT (human, UniProt P42858 1-3142)
In short: as §1

Measured: binding result

HTT, sequence (P42858 whole entry): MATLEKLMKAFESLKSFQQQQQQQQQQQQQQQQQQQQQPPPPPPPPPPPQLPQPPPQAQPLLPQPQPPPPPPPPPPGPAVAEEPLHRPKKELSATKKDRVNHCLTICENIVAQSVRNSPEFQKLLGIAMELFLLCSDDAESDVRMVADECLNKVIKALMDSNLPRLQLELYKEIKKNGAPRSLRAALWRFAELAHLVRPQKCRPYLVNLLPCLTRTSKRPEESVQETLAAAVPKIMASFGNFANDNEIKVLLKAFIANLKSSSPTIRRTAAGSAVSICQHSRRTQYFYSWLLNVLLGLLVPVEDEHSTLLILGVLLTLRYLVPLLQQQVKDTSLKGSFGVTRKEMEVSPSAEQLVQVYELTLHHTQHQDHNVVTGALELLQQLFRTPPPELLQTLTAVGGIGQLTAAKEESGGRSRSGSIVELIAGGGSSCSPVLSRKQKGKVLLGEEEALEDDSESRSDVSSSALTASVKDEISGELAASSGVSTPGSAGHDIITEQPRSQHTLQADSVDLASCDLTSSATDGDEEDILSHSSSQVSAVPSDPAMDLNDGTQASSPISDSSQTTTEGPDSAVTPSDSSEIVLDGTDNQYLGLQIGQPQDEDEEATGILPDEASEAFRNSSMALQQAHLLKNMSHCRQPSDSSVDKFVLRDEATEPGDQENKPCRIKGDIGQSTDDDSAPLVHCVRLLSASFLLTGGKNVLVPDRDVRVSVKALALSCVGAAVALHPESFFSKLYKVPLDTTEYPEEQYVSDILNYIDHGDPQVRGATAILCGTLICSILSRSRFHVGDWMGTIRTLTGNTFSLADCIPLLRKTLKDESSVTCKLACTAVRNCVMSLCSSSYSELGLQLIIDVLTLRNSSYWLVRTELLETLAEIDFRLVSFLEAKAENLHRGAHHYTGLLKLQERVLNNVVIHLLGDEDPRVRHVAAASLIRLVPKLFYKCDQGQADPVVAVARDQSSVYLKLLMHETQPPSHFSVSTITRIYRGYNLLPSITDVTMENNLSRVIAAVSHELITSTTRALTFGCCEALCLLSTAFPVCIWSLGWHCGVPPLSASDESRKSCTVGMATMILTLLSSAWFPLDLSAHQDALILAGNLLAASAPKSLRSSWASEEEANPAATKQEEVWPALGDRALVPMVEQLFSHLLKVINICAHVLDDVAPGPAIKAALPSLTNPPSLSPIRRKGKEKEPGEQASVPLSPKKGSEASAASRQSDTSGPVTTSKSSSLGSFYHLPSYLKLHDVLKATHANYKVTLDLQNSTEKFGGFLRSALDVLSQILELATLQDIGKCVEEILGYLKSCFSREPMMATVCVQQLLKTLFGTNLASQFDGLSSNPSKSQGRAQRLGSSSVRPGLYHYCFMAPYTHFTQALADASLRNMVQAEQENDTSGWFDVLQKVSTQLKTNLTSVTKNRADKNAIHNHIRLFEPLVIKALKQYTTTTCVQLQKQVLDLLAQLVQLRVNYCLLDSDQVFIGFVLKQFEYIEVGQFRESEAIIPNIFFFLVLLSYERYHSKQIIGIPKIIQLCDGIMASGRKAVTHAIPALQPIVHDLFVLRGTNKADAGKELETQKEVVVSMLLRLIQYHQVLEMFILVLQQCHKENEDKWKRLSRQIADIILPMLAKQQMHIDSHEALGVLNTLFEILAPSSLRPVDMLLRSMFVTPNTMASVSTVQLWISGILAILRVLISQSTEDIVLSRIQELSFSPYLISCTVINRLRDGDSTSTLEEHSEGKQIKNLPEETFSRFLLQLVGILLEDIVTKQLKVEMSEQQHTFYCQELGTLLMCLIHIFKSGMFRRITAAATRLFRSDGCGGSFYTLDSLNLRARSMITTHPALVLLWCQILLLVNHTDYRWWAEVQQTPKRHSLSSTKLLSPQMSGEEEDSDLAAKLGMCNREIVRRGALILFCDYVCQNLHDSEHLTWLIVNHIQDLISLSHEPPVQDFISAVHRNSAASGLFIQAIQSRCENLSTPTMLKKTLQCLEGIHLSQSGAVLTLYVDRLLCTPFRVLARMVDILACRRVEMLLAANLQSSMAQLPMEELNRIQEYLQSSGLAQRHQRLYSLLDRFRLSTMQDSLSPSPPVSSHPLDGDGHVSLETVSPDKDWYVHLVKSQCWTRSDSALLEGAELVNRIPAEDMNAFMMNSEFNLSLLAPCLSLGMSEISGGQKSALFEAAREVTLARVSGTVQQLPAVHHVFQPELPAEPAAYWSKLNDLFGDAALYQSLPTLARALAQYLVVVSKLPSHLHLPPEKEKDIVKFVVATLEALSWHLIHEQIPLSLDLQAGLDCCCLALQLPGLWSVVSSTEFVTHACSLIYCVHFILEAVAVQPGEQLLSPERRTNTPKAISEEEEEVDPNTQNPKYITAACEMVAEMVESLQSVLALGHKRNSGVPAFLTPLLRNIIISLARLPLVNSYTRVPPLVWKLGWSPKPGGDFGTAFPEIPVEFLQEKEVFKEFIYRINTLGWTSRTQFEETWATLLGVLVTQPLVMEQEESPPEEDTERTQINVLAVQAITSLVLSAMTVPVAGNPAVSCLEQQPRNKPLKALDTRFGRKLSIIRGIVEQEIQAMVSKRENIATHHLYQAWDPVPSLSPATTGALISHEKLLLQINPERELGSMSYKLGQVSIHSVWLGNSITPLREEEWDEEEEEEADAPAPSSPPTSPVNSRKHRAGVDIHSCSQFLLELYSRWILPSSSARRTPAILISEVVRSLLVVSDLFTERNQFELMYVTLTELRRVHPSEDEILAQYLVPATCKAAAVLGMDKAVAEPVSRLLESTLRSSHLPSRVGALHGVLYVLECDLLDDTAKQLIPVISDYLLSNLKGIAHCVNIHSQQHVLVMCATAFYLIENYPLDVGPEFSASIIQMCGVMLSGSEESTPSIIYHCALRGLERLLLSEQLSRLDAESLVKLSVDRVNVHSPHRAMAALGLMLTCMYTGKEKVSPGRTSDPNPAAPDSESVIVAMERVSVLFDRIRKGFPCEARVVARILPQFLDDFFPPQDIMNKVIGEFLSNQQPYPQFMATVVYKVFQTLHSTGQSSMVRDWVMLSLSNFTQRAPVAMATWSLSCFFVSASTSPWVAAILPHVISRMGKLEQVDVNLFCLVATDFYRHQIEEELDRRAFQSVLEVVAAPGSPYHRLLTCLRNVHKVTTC
MAP4K4, sequence (O95819 2-1239 limits assumed): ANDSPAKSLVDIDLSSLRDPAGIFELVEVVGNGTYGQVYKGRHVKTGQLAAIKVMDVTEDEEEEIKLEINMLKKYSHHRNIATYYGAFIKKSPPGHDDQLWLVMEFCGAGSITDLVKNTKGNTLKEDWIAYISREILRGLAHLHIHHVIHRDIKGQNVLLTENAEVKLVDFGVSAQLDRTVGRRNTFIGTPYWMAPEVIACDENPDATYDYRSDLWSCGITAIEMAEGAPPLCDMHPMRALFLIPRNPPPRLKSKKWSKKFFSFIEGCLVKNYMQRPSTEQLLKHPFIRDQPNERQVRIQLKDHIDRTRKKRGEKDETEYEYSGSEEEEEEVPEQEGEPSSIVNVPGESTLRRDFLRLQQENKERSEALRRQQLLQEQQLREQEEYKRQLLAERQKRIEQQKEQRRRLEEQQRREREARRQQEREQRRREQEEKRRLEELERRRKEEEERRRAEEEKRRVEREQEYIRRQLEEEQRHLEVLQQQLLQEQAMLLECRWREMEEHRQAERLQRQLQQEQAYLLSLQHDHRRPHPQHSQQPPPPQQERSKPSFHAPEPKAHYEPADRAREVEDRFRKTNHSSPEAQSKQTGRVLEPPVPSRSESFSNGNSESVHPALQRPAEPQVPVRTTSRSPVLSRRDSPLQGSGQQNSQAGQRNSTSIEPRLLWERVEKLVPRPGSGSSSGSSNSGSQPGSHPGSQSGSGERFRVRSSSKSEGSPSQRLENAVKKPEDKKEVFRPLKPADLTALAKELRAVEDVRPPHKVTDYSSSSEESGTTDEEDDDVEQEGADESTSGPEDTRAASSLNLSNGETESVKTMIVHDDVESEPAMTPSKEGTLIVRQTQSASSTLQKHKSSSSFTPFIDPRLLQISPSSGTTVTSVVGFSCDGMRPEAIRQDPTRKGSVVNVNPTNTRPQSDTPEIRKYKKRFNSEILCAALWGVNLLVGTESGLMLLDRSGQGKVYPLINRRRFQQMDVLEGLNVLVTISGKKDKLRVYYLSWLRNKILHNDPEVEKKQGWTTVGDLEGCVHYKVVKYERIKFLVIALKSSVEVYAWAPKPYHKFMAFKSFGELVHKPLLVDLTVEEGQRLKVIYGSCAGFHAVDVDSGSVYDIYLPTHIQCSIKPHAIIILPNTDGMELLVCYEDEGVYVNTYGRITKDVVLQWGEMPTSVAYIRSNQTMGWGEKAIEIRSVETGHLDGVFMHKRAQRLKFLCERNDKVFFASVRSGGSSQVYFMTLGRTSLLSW

B1: LZTR1 R810W-FLAG (other, human, UniProt Q8N653 1-840, looked up)
chain: MAGPGSTGGQIGAAALAGGARSKVAPSVDFDHSCSDSVEYLTLNFGPFETVHRWRRLPPCDEFVGARRSKHTVVAYKDAIYVFGGDNGKTMLNDLLRFDVKDCSWCRAFTTGTPPAPRYHHSAVVYGSSMFVFGGYTGDIYSNSNLKNKNDLFEYKFATGQWTEWKIEGRLPVARSAHGATVYSDKLWIFAGYDGNARLNDMWTIGLQDRELTCWEEVAQSGEIPPSCCNFPVAVCRDKMFVFSGQSGAKITNNLFQFEFKDKTWTRIPTEHLLRGSPPPPQRRYGHTMVAFDRHLYVFGGAADNTLPNELHCYDVDFQTWEVVQPSSDSEVGGAEVPERACASEEVPTLTYEERVGFKKSRDVFGLDFGTTSAKQPTQPASELPSGRLFHAAAVISDAMYIFGGTVDNNIRSGEMYRFQFSCYPKCTLHEDYGRLWESRQFCDVEFVLGEKEECVQGHVAIVTARSRWLRRKITQARERLAQKLEQEAAPVPREAPGVAAGGARPPLLHVAIREAEARPFEVLMQFLYTDKIKYPRKGHVEDVLLIMDVYKLALSFQLCRLEQLCRQYIEASVDLQNVLVVCESAARLQLSQLKEHCLNFVVKESHFNQVIMMKEFERLSSPLIVEIVRRKQQPPPRTPLDQPVDIGTSLIQDMKAYLEGAGAEFCDITLLLDGHPRPAHKAILAARSSYFEAMFRSFMPEDGQVNISIGEMVPSRQAFESMLRYIYYGEVNMPPEDSLYLFAAPYYYGFYNNRLQAYCKQNLEMNVTVQNVLQILEAADKTQALDMKRHCLHIIVHQFTKVSKLPTLWSLSQQLLLDIIDSLASHISDKQCAELGADI
notes: Stably expressed in U87 cells by lentivirus; also called LZTR1-FLAG-R810W; LZTR1 RW; not shown: FLAG tag
binds: all assays above
